Assays:
NB4 = assay: Annexin V-FITC flow cytometry, apoptosis of NB4; format: cell-based; conditions: Annexin V/PI
Experimental: FACS Calibur flow cytometry, U.S. Becton-Dickinson.Coompany. NB4, HL-60. rLZ-8 is prepared with IMDM culture medium containing 2% FCS into the preparation of 0.1 μg·ml^−1, 0.5 μg·ml^−1, 2.5 μg·ml^−1, arsenic trioxide (As2O3) 0.5 μg·ml^−1 AnnexinV-FITC kit: combining buffer solution 4×; Propidium iodide solution (PI), 20 μg·ml−1, 0.2 ml; recombinant human Annexin V/FITC, 0.1 ml.
Establish NB4 normal control group, positive drug group (As2O3 0.5 μg·ml^−1), protein low-dose group (0.1 μg·ml^−1), medium-dose group (0.5 μg·ml^−1), high-dose group, (2.5 μg·ml^−1); establish HL-60 normal control group, protein low-dose group (0.1 μg·ml^−1), medium-dose group (0.5 μg·ml^−1), high-dose group, (2.5 μg·ml^−1).
Mix NB4 and HL-60 cell into 24-orifice plate respectively, 1 ml/hole supply rLZ-8 in different concentrates, set 3-orifice multipunches for each group. Put them in 37° C., 5% CO2 incubator for 24 h, collect the cells of each concentrate, washes the cells twice with pre-cooled PBS 4° C., with 250 μl binding buffer solution re-suspending cells and regulates the cell density to 1×10^6/ml, taking out 100 μl to 5 ml streaming tube, and add 5 μl Annexin V/FITC and 10 μl 20 μg·ml^−1 PI solution, after mixing put it in room temperature and lucifuged hatching 15 min, add 400 μl PBS by flow cytometry analysis.

[1] = test system: mouse peritoneal H22 tumor cells; assay: H22 ascites tumor inhibition experiment; format: in vivo, Mice
Experimental: Mouse hepatoma cell strain H22, offered by our laboratory.
Treatment after 24 h of vaccination. […] Daily weighing, observe the weight changes of mice, drawing weight growth curves.

WBC = assay: Treatment of radiation leucopenia model of mice, WBC; format: in vivo; parameters: unit not given here; conditions: 7.5 Gy γ-ray
Experimental: (§1) rLZ-8 preparation of sterile saline. Divide them into 5 ∞g·kg^−1, 2.5 μg·kg^−1, 1.25 μg·kg^−1, 0.62 μg·kg^−1 dose groups. 0.2 ml/vial.
(§2) Genlei™ Scimax™ [Recombinant human granulocyte colony-stimulating factor injection (rhG-CSF)], production lot: 20060403; 150m/vial is prepared with sterile normal saline into the preparation of 3.2 μg·kg^−1, 0.2 ml/vial.
(§3) The mice were irradiated by 7.5 Gy γ-ray (180 mV, 15 mA) and then divided into seven groups (n=10): (A) negative control; (B) 5 μg·kg−1 dose; (C) 2.5 μg·kg−1 dose; (D) 1.25 μg·kg−1 dose; (E) 0.62 μg·kg−1 dose; (F) positive control (Genlei™ Scimax™); (G) model group. Together with modeling, mice in each group were administered with Genlei™ Scimax™ and rLZ-8 for 9 days, drew blood from tail, tested the number of WBC, weight spleen, calculated index of spleen.

spleen = assay: Colony forming unit-spleen and spleen index in radiation model of mice; format: in vivo
Experimental: as §1, §2, §3

[2] = test system: human red blood cells (A, B, O and AB blood type); assay: Red blood cell agglutination, human; format: cell-based
Experimental: A, B, O and AB blood type, from the healthy volunteers 2 ml respectively, SRBC (sheep red cell) 2 ml. Centrifuge the above RBC 1200 g·min^−1 for 10 min, clears the supernatant and wash with 5 ml PBS, repeat the above operation 3-5 times, and then uses 0.01 mol/L PBS suspension preparation of 1.5%. Prepare rLZ-8 with normal saline to final concentrations of 50 μg·ml^−1, 25 μg·ml^−1, 12.5 μg·ml^−1, 6.25 μg·ml^−1, 1.56 μg·ml^−1, 0.78 μg·ml^−1, 0.39 μg·ml^−1, 0.20 μg·ml^−1, 0.10 μg·ml^−1, 0.05 μg·ml^−1, 0.03 μg·ml^−1. Plant agglutinin (PHA) preparation Ibid.
Divide experiment subjects into rLZ-8 concentration groups, positive drug control, and normal control group.
On 96-orifice Hemagglutination board, we add A-type 1.5%, erythrocyte 25 μl/hole, and then add 0.2% gelatin, 75 μl/hole. Drug groups are added different concentrations of rLZ-8, till the final concentration as above-noted; positive drug control group PHA 25 μl/hole; normal control group PBS25μl/hole. 6 parallel control groups in each group. Shaking for 30 s under normal room temperature, 37° C. incubation, observe the subjects 1 h later. For B-type, AB-type, O-type, the same experiment methods are as SRBC (sheep red cell) above.

[3] = test system: systemic allergic reaction caused by BSA; assay: Systemic allergic reaction in mice caused by BSA; conditions: for Death number/total / Sensitization number/total: sensitization BSA (i.p.)
Experimental: Prepare rLZ-8 700 μg/ml^−1 with saline and Aluminium hydroxide with PBS buffer. Male mice, 15 vial, were divided into 4 groups: two rLZ-8 dosage groups, positive group, normal control group. […] Positive reaction standard: tic or death. Negative reaction standard: normal.

[4] = rLZ-8 dose 2, shock BSA-rLZ-8 (i.v.)

B1: rLZ-8: Recombinant Ganoderma Lucidum Immune Regulatory Protein expressed in Pichia pastoris (protein, UniProt P14945 2-111, looked up)
Immunomodulatory protein Ling …: SDTALIFRLAWDVKKLSFDYTPNWGRGNPNNFIDTVTFPKVLTDKAYTYRVAVSGRNLGVKPSYAVESDGSQKVNFLEYNSGYGIADTNTIQVFVVDPDTNNDFIIAQWN
Apoptosis rate (NB4; NB4, rLZ-8 0.1 μg·ml−1, 24 h): 21.0%
Apoptosis rate (NB4; NB4, rLZ-8 0.5 μg·ml−1, 24 h): 22.3%
Apoptosis rate (NB4; NB4, rLZ-8 2.5 μg·ml−1, 24 h): 34.0%
growth of peritoneal H22 tumor cells (body weight curve) ([1]; rLZ-8 0.25-1 mg·kg^−1 tail venous injection, 10 days): inhibited the mouse peritoneal H22 tumor cells growth
survival of H22 ascites mice ([1]; rLZ-8 groups vs negative control group): survive longer than the negative control group
WBC, 5th day (WBC; rLZ-8 0.62 μg·kg^−1): 0.73 ± 0.43
WBC, 7th day (WBC; rLZ-8 0.62 μg·kg^−1): 0.26 ± 0.43
WBC, 9th day (WBC; rLZ-8 0.62 μg·kg^−1): 0.64 ± 0.01
WBC, 5th day (WBC; rLZ-8 1.25 μg·kg^−1): 0.82 ± 0.45
WBC, 7th day (WBC; rLZ-8 1.25 μg·kg^−1): 0.65 ± 0.45
WBC, 9th day (WBC; rLZ-8 1.25 μg·kg^−1): 0.70 ± 0.12
WBC, 5th day (WBC; rLZ-8 2.50 μg·kg^−1): 0.69 ± 0.54
WBC, 7th day (WBC; rLZ-8 2.50 μg·kg^−1): 0.56 ± 0.54
WBC, 9th day (WBC; rLZ-8 2.50 μg·kg^−1): 0.54 ± 0.13
WBC, 5th day (WBC; rLZ-8 5 μg·kg^−1): 0.84 ± 0.32
WBC, 7th day (WBC; rLZ-8 5 μg·kg^−1): 0.31 ± 0.32
WBC, 9th day (WBC; rLZ-8 5 μg·kg^−1): 0.90 ± 0.14
colony forming unit-spleen number (spleen; rLZ-8 0.62 μg·kg^−1): 8.9 ± 0.41
growth rate (spleen; rLZ-8 0.62 μg·kg^−1): 50%
index (spleen) (spleen; rLZ-8 0.62 μg·kg^−1): 0.50 ± 0.10
colony forming unit-spleen number (spleen; rLZ-8 1.25 μg·kg^−1): 6.3 ± 0.21
growth rate (spleen; rLZ-8 1.25 μg·kg^−1): 30%
index (spleen) (spleen; rLZ-8 1.25 μg·kg^−1): 0.24 ± 0.13
colony forming unit-spleen number (spleen; rLZ-8 2.50 μg·kg^−1): 14.3 ± 0.03
growth rate (spleen; rLZ-8 2.50 μg·kg^−1): 69%
index (spleen) (spleen; rLZ-8 2.50 μg·kg^−1): 0.52 ± 0.12
colony forming unit-spleen number (spleen; rLZ-8 5 μg·kg^−1): 9.7 ± 0.16
growth rate (spleen; rLZ-8 5 μg·kg^−1): 54%
index (spleen) (spleen; rLZ-8 5 μg·kg^−1): 0.22 ± 0.09
agglutination of four types of human red blood cells (in words) [2]: not agglutinative
systemic allergic reaction caused by BSA (in words) ([3]; mouse, in vivo): could inhibit systemic allergic reaction
Death number/total ([3]; rLZ-8 dose 1, shock BSA (i.v.)): 0/10
Sensitization number/total ([3]; rLZ-8 dose 1, shock BSA (i.v.)): 5/10
Death number/total [3, 4]: 0/10
Sensitization number/total [3, 4]: 9/10

Reference: US20110009597A1, “RECOMBINANT GANODERMA LUCIDIUM IMMUNOMODULATORY PROTEIN (rLZ-8) AND USES THEREOF” (priority 2008, published 2011)
